Reference: patent US20160075746A1 (published 2016)
Each block holds one binder with its values, some of them ahead of it. Primed or numbered codes have the meaning given here. [ ]: non-standard residue; d: D form. The star is where a group is joined. PE = proline (from (4R)-azidoproline) carrying a 1,2,3-triazole-linked chondroitin sulfate E (CS-E) disaccharide; Biotin = O=C1N[C@H]2[C@H](CS[C@H]2CCCCC(=O)*)N1; PEG12″ = not defined here; PEG12′ = PEG12: -

What was measured:
[1] = target: nerve growth factor (NGF); experiment: ELISA, glycopeptide on streptavidin plate, NGF 0-60 nM, anti-NGF-HRP detection
[2] = target: nerve growth factor (NGF); experiment: cell-based or functional assay
[3] = target: nerve growth factor (NGF); experiment: SPR, glycopeptide immobilised, NGF analyte, two-state model
[4] = target: nerve growth factor (NGF); experiment: SPR (Biacore T100), glycopeptide immobilised on streptavidin CM5 chip, NGF 11-185 nM as analyte, two-state model, ka1
[5] = target: nerve growth factor (NGF); experiment: SPR, two-state model, comparison of KD values with glycopeptide 1
[6] = target: nerve growth factor (NGF); experiment: SPR, glycopeptide immobilised, NGF analyte, two-state model, kd1

Sequence of nerve growth factor (NGF) (chain, as listed by the source): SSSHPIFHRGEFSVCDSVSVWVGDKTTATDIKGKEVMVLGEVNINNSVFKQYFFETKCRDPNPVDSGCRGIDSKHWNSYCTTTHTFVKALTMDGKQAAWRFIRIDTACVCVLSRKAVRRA

- fold increase in NGF binding as compared to 1 [1]: 4.6 fold
- NGF-induced TrkA phosphorylation (Western blot, pTrkA/TrkA ratio) in PC12 cells [2]: ~40%
- Kd [3]: 137 nM
- kon [4]: 46500 M⁻¹ s⁻¹
- fold stronger binding to NGF than agent 1 (by KD) [5]: ~18 fold
- koff [6]: 0.0274 s⁻¹
B1: glycopeptide 5 (peptide)
peptide: {Biotin-PEG12′}-PP[PE]PP[PE]PP[PE]PP[PE]PP[PE]PP[PE]PP[PE]PP[PE]PP[PE]PP[PE]PP[PE]PP[PE]-OMe
notes: All 12 CS-E disaccharides lie along one face of the PPII helix; also called agent 5; compound 5

- Kd [3]: 2500 nM
- kon [4]: 1950 M⁻¹ s⁻¹
- koff [6]: 0.0322 s⁻¹
B2: glycopeptide 1 (peptide)
peptide: {Biotin-PEG12′}-[PE][PE][PE][PE][PE][PE][PE][PE][PE][PE][PE][PE]-OMe
notes: Immobilised through biotin on streptavidin in ELISA and SPR; also called agent 1; CS-E sulfated glycopeptide 1

- fold increase in NGF binding affinity in comparison to 1 [1]: ~2.6 fold
Binder: {Biotin-PEG12″}-P[PE]P[PE]P[PE]P[PE]P[PE]P[PE]P[PE]P[PE]P[PE]P[PE]P[PE]P[PE]-OMe (also called agent 4; (PPE)12) [glycopeptide 4]
